Measured values from the supplement of paper PMC9732359.
± gives the uncertainty stated by the source.

test: protein stability index of a GFP-peptide fusion (yeast GPS) (PSI 1-4); higher = more stable; sorted into four equal gates, so the index is relative within each strain; conditions: pdr5∆
In short: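 Plasmids in a pooled yeast library fused tiled 17-residue yeast protein peptides downstream of GFP and also expressed Cherry. Mid-log cultures grown without leucine were sorted into four equal gates by GFP/Cherry fluorescence ratio. Each gate's plasmids were PCR-amplified and Illumina-sequenced, and reads were matched to strains by barcodes. The protein stability index is derived by multiplying each gate's read frequency by its gate number and summing the results.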

Compared with EGLDELPKIIQLQGPQW [SOH1], EGLSAQIAFDLVSSASQ [RPN2] is lower in protein stability index: 3.35 ± 0.057 for the first, 3.05 ± 0.075 for the second.

Going from EGPKKCIQVNCLNCEKS [SNM1] to EGQLKPGDGSSYINVTF [RPC25], the protein stability index rises from 2.04 ± 0.058 to 3.12 ± 0.15.

EGTPINNVYFAAGALFV [RPN14] and EGWFYKRAASVARHIYM [RPS19A] are within error of each other in protein stability index: 2.63 ± 0.13 for the first, 2.51 ± 0.22 for the second.

First: EGYGLRDVMCTDGVIGS [RPO31]
Second: EHFLKLNIDFGSDKQMF [YML103C/NUP188]
The protein stability index of the first is higher: 3.29 ± 0.14 for the first, 2.59 ± 0.07 for the second.

EIDHQEYSPEILQIREE [RRP6] and EIENLDKELRKTKFQYK [YIL149C/MLP2] are within error of each other in protein stability index: 3.06 ± 0.069 for the first, 3.02 ± 0.086 for the second.

EIEQNTELLDEFIAAVN [RPN10] and EIESIDKLPQFVDENTF [RPN1] are within error of each other in protein stability index: 3.32 ± 0.11 for the first, 3.4 ± 0.22 for the second.

Compared with EIFHLLQPLEEGLIIDT [SIN4], EIIADWIWDMNVHGSLE [BRR2] is higher in protein stability index: 2.13 ± 0.11 for the first, 2.43 ± 0.095 for the second.

EIILKLCRNPLTSGLLY [YJL039C/NUP192] and EIKKMIITNINAIFLSS [YCG1] are within error of each other in protein stability index: 1.84 ± 0.07 for the first, 1.94 ± 0.088 for the second.

First: EIKLLEISCKQWEISNM [CSI1]
Second: EIKNDFIMVKGCIPGNR [RPL3]
The protein stability index of the first is higher: 3.44 ± 0.27 for the first, 1.66 ± 0.08 for the second.

EILNECHDELKALPMLE [MED4] and EILRIHSRKMNLTRGIN [RPT6] are within error of each other in protein stability index: 2.95 ± 0.16 for the first, 2.99 ± 0.071 for the second.

Going from EILVEESGLRPVSLLNS [PCI8] to EILVLYNVCDTSKSLVK [SIN4], the protein stability index falls from 3.21 ± 0.1 to 2.88 ± 0.046.

Going from EINETEFIRCGCLIKNL [RMP1] to EIPEGVTVSIKSRIVKV [RPL9B], the protein stability index falls from 2.98 ± 0.096 to 1.45 ± 0.075.

First: EIRAKEYKTSSDSLGPD [SRB2]
Second: EISISFDVNNIDMHLIY [YDL116W/NUP84]
The protein stability index of the first is higher: 2.87 ± 0.058 for the first, 2.43 ± 0.093 for the second.

First: EISLKAHCILGIGGDHA [RPC40]
Second: EISPQDSIASVLSPDSN [GAL11]
The protein stability index of the first is lower: 1.3 ± 0.16 for the first, 2.34 ± 0.062 for the second.

First: EIVSDVKVVDAGNKVGQ [RPP0]
Second: EIVWTSSLIKAGLDKGI [RPO31]
The protein stability index of the first is higher: 3.59 ± 0.2 for the first, 1.96 ± 0.061 for the second.

Going from EKAVEEKPAVKSYASLL [RPT3] to EKDFCTSCLQNNNQKID [SRB8], the protein stability index rises from 3.02 ± 0.053 to 3.29 ± 0.13.

Compared with EKGLNELSIRDVTHTLG [SMC4], EKIKMKLKQGQKLFVQV [GAL11] is higher in protein stability index: 2.42 ± 0.092 for the first, 3.2 ± 0.09 for the second.

First: EKKAASAKQTAPNNSNG [MED7]
Second: EKKAEYFAKLREYLEEY [RPP0]
The protein stability index of the first is lower: 3 ± 0.13 for the first, 3.31 ± 0.088 for the second.

First: EKKGIVQASVTSSTHER [RET1]
Second: EKLKQFSWISVVNDLVG [SIR3]
The protein stability index of the first is higher: 3.1 ± 0.23 for the first, 1.99 ± 0.058 for the second.

Going from EKLNKTDENTPSADGAD [ITC1] to EKLTLVTLSEIYNELSY [CSN9], the protein stability index falls from 3.29 ± 0.061 to 1.66 ± 0.036.

EKNGGLGWDLDAIIPFA [FAS2] and EKNYDRKEPPATVEECV [PRE6] are within error of each other in protein stability index: 3.22 ± 0.13 for the first, 3.29 ± 0.12 for the second.

Going from EKSPDPTIRSNAVLGLG [YCS4] to EKVRDYENSISKDLRSV [IRR1], the protein stability index falls from 2.26 ± 0.054 to 1.98 ± 0.094.

ELAKEAKKSTTISKEST [ESC2] and ELDQFWQEYSSVFKGGM [SRP14] are within error of each other in protein stability index: 2.47 ± 0.14 for the first, 2.66 ± 0.079 for the second.

ELEGSFNKSAELSRIEN [YCS4] and ELEMIGGTNEDDFTDAI [YCS4] are within error of each other in protein stability index: 3.22 ± 0.23 for the first, 3.2 ± 0.18 for the second.

First: ELEQLSSEALEAARICA [RPL10]
Second: ELESMLEDLKNTKEIAV [RRP6]
The protein stability index of the first is lower: 1.35 ± 0.059 for the first, 2.27 ± 0.051 for the second.

Going from ELFKDYKPGSITLENIT [MED1] to ELGTAVGKLFRVGVVSI [RPL30], the protein stability index falls from 2.36 ± 0.053 to 1.17 ± 0.1.

Compared with ELIIDPLFKKALVDFDE [BRN1], ELKTRDATNTSYKMIQL [SWP82] is higher in protein stability index: 2.98 ± 0.14 for the first, 3.5 ± 0.078 for the second.

Compared with ELLANKCPLLVEVDITL [GRR1], ELLNADHQHILRKLKKM [RPC53] is lower in protein stability index: 1.58 ± 0.047 for the first, 1.24 ± 0.063 for the second.

ELLSSLEGKGSLEEIIA [RPP2B] and ELNVEKLNTFNLQTFTH [SRP72] are within error of each other in protein stability index: 2.24 ± 0.061 for the first, 2.33 ± 0.15 for the second.

First: ELSDNEENFEATRTLVA [YCG1]
Second: ELSDSWRAHDSSIVAID [YGL100W/SEH1]
The protein stability index of the first is higher: 3.09 ± 0.096 for the first, 2.72 ± 0.11 for the second.

ELTKNPNSNVELAGGNA [SMC1] and ELVDMAGAGEANGTVVS [MTR3] are within error of each other in protein stability index: 3.01 ± 0.15 for the first, 3.11 ± 0.14 for the second.

First: ELVKAHLGERAASVIGM [RPC82]
Second: EMDEKSYEKNEDHVEDH [LIN1]
The protein stability index of the first is lower: 2.77 ± 0.28 for the first, 3.35 ± 0.089 for the second.

EMINEQKLPQYIIQGSN [RGR1] and EMKIGSIESKLEEHKNH [SMC1] are within error of each other in protein stability index: 2.96 ± 0.27 for the first, 3.22 ± 0.16 for the second.

Going from ENELFNDRKQTTVSNDL [SSN2] to ENEVSDIDVTIVSKEYE [ESC2], the protein stability index falls from 3.14 ± 0.079 to 2.19 ± 0.098.

Going from ENHNGQSISNENDVKPI [SWI3] to ENHNKGKLWKDVKARIA [QCR9], the protein stability index rises from 1.83 ± 0.051 to 3.07 ± 0.19.

ENIIQMEMIENRTMDGK [FAS1] and ENLPGLSISVAAEPMDS [SNU114] are within error of each other in protein stability index: 2.81 ± 0.11 for the first, 2.91 ± 0.079 for the second.

ENPDLSTKKKILGIHTS [RPT2] and ENPTPEKGNAKMIDFAT [SIR3] are within error of each other in protein stability index: 3.02 ± 0.24 for the first, 2.99 ± 0.092 for the second.

Going from ENSAVAAKEGLALSSNI [COR1] to EPENNTVIEGVKEESQP [SWI3], the protein stability index rises from 2.66 ± 0.064 to 3.13 ± 0.092.

EPHAVSLAWSADGQTLF [ASC1] and EQFYTKDIIDPKLTSIF [RPN2] are within error of each other in protein stability index: 3.06 ± 0.14 for the first, 2.92 ± 0.11 for the second.

Compared with EQHHINNLKNSGNSANN [GAL11], EQKKTATEVTPQEPKHI [RPC19] is higher in protein stability index: 2.09 ± 0.088 for the first, 3.02 ± 0.054 for the second.

Going from EQKLIDQHVINILWAIY [YCS4] to EQLSEEDAKLKTDLELL [RPN1], the protein stability index rises from 2.28 ± 0.04 to 3.25 ± 0.069.

First: EQTCVKLLDSGCENPAD [SRP72]
Second: EQVLSAAATFPIAQPAT [RPL13A]
The protein stability index of the first is higher: 3.4 ± 0.085 for the first, 2.24 ± 0.057 for the second.

ERLMSRPFGVALLIAGH [PUP2] and ERPPYILNSYGVLKPDI [SIR2] are within error of each other in protein stability index: 3.08 ± 0.11 for the first, 3.12 ± 0.093 for the second.

Going from ESGIKPYFEQKIQETEL [RPT6] to ESGSTPISISNAPTFNP [YAR002W/NUP60], the protein stability index falls from 3.24 ± 0.14 to 2.64 ± 0.061.

Going from ESKLRDDLERLKKIRAH [RPS18A] to ESKLSLETLFNRWHSES [FAS2], the protein stability index rises from 1.98 ± 0.087 to 3.24 ± 0.1.

Compared with ESNVNDSDMLTKSHNTV [NUT1], ESQLQMDRTSLRKQYSA [SMC3] is lower in protein stability index: 3.25 ± 0.095 for the first, 2.53 ± 0.096 for the second.

First: ESRKAFFLGYMINRLLL [RPB2]
Second: ESTTEATGNESQDATKV [YLR335W/NUP2]
The protein stability index of the first is lower: 1.17 ± 0.11 for the first, 3.23 ± 0.081 for the second.

First: ESVLPAARYDYAVAEQC [QCR2]
Second: ESYKPSVQLPDMAKLKK [SWI3]
The protein stability index of the first is higher: 3.25 ± 0.11 for the first, 2.9 ± 0.081 for the second.

ETGYMSRRLMKSLEDLS [RPO31] and ETIKMKELDQELIIDPL [BRN1] are within error of each other in protein stability index: 3.13 ± 0.25 for the first, 3.04 ± 0.15 for the second.

ETKDIRKQIQLLKKIIF [SRB4] and ETQFKLSRPYKALKTNI [CDC53] are within error of each other in protein stability index: 2.43 ± 0.044 for the first, 2.39 ± 0.051 for the second.

Work on ETQYFWKLLNQLVLRGL [YJR042W/NUP85] yielded a protein stability index of 1.26 ± 0.074.
